Where a chain is given by its changes, count along the chain named.
B1: ERR1-Top43-G5-PNU (adc204) antibody drug conjugate (other)
VH: QSLEESGGRLVTPGTPLTLTCTVSGFSLSSYWMSWVRQAPGKGLEWIGAIYGSGNTYYASWAKGRFTISKTSTTVDLKITSPTTEDTATYFCARDVHSTATDLWGPGTLVTISS
VL: SYELTQLPSVSVSLGQTARITCGGNNIGSKAVNWYQQKPGLAPGLLIYNDDERPSGVPDRFSGSNSGDTATLTISGAQAGDEADYYCQLWDSSAGAYVFGGGTQLTVTG
modifications: Gly5-EDA-PNU joined by sortase to the C-terminal G5SLPETG tag of the full light chain; Gly5-EDA-PNU joined by sortase to the C-terminal LPETG tag of the full heavy chain
B2: HuXBR1-402(19)-G5-PNU (Adc460) (other)
VH: QVQLQESGPGLVKPSETLSLTCTVSGFDISSYYMSWVRQPPGNGLEWIGAIGISGNAYYASWAKSRVTISRDTSKNQFSLKLSSVTAADTAVYYCARDHPTYGMDLWGPGTLVTVSS
VL: SYELTQPPSVSVAPGKTARITCEGNNIGSKAVHWYQQKPGQAPVLVIYDDDERPSGIPERFSGSNSGNTATLTISRVEAGDEADYYCQVWDSSAYVFGGGTKLTVLG
modifications: Gly5-EDA-PNU joined by sortase to the C-terminal G5SLPETG tag of the full light chain; Gly5-EDA-PNU joined by sortase to the C-terminal LPETG tag of the full heavy chain
B3: HuXBR1-402(26)-G5-PNU (Adc461) (other)
VH: B2 VH
VL: B2 VL with P8L, P14L, K16Q, Q41L, V77A, E78Q, K102Q
modifications: Gly5-EDA-PNU joined by sortase to the C-terminal G5SLPETG tag of the full light chain; Gly5-EDA-PNU joined by sortase to the C-terminal LPETG tag of the full heavy chain
B4: HuXBR1-402(15) (mAb290) (antibody, human IgG1, V domains shown)
VH: B2 VH with N43K
VL: B2 VL
notes: Humanized IgG (human IgG1 constant regions, lambda)
B5: HuXBR1-402(17) (mAb291) (antibody, human IgG1, V domains shown)
VH: B2 VH with Q5R, N43K
VL: B2 VL
notes: as for B4
B6: HuXBR1-402(19) (mAb295) (antibody, human IgG1, V domains shown)
VH: B2 VH
VL: B2 VL
notes: as for B4
B7: HuXBR1-402(26) (mAb296) (antibody, human IgG1, V domains shown)
VH: B2 VH
VL: B2 VL with P8L, P14L, K16Q, Q41L, V77A, E78Q, K102Q
notes: as for B4
B8: HuXBR1-402(8) (mAb289) (antibody, human IgG1, V domains shown)
VH: B2 VH with N43K
VL: SYELTQPPSVSVSPGQTAIITCEGNNIGSKAVHWYQQKPGLSPVLVIYDDDERPSGIPERFSGSNSGNTATLTVSGTQDMDEADYYCQVWDSSAYVFGGGTKLTVLG
notes: as for B4
B9: HuXBR1-402(3) (mAb288) (antibody, human IgG1, V domains shown)
VH: B2 VH with Q5R, N43K
VL: B2 VL with P8L, P14L, K16Q, V77A, E78Q
notes: as for B4
B10: ERR1-306 (mAb033) IgG with C-terminal sortase and Strep tags (antibody, V domains shown)
VH: QEQLKESGGGLVQPGGSLKLSCKASGFDLSNYGVSWVRQAPGKGLEWIGYIDPTFDYTYYASWVNGRFSISRENTQNTVSLQINSLTPADTATYFCARWVYGVDDYGDGNWLDLWGQGTLVTISS
VL: QFVLTQSPSVSAALGASAKLTCTLSSAHKTYTIDWYQQQQGEAPRYLMELKSDGSYTKGTGVPDRFSGSSSGADRYLIIPSVQADDEADYYCGTDYSGGYVFGGGTQLTVTG
notes: Human IgG1 constant regions
B11: ERR1-301 (mAb027) IgG with C-terminal sortase and Strep tags (antibody, V domains shown)
VH: QEQLEESGGGLVTPGGSLTLTCTASGFTISTYHMSWVRQAPGKGLEWIGSIYAGSGSTYYASWVNGRFTISSNTTQNTVSLQMNSLTVADTATYFCARDHPSYGMDLWGPGTLVTVSS
VL: B1 VL with N26S, N49D, G63A, G80E, G95V
notes: Human IgG1 constant regions
B12: ERR1-Top43 (mAb036) IgG with C-terminal sortase and Strep tags (antibody, V domains shown)
VH: B1 VH
VL: B1 VL
notes: Human IgG1 constant regions
B13: ERR1-403 (mAb035) IgG with C-terminal sortase and Strep tags (antibody, V domains shown)
VH: QEQLKESGRGLVQPGGSLKLSCKASGFDFSGWYMTWVRQAPGKGLEWIGTIGTTKGRTYYASWVNGRFTISSNAQNTVDLQMNSLTAADRATYFCVRGSDYFDLWGPGTLVTISS
VL: B1 VL with N26S, N49D, D59A
notes: Human IgG1 constant regions
B14: XBR1-402 (mAb031) IgG with C-terminal sortase and Strep tags (antibody, V domains shown)
VH: QEQQKESGGGLFKPTDTLTLTCTASGFDISSYYMSWVRQAPGNGLEWIGAIGISGNAYYASWAKSRSTITRNTNLNTVTLKMTSLTAADTATYFCARDHPTYGMDLWGPGTLVTVSS
VL: SYELTQLPSVSVSLGQTARITCEGNNIGSKAVHWYQQKPGLAPGLLIYDDDERPSGVPDRFSGSNSGDTATLTISGAQAGDEADYYCQVWDSSAYVFGGGTQLTVTG
notes: Human IgH-gamma1 and IgL-lambda constant regions
B15: ERR1-324 (mAb034) IgG with C-terminal sortase and Strep tags (antibody, V domains shown)
VH: QSLEESGGGLVQPGESLTLTCTVSGFSLSRNGMTWVRQAPGKGLEWIGIITSSGDKYYATWAKGRFTISKTSSTTVDLKMTSLTTEDTATYFCARGTVSSDIWGPGTLVTISS
VL: ELVLTQTPSPVSAAVGGTVTINCQASQSVYGNNELAWYQQKPGQPPKLLIYRASILTSGVPSRFKGSGSGTQFTLTISNVQREDAATYYCLGGYVSQSYRAAFGGGTELEIL
notes: Human IgG1 constant regions, kappa light chain

Target: T1, human ROR1, full length, on cells (human, UniProt Q01973 30-937)
T1 sequence (Q01973 30-937): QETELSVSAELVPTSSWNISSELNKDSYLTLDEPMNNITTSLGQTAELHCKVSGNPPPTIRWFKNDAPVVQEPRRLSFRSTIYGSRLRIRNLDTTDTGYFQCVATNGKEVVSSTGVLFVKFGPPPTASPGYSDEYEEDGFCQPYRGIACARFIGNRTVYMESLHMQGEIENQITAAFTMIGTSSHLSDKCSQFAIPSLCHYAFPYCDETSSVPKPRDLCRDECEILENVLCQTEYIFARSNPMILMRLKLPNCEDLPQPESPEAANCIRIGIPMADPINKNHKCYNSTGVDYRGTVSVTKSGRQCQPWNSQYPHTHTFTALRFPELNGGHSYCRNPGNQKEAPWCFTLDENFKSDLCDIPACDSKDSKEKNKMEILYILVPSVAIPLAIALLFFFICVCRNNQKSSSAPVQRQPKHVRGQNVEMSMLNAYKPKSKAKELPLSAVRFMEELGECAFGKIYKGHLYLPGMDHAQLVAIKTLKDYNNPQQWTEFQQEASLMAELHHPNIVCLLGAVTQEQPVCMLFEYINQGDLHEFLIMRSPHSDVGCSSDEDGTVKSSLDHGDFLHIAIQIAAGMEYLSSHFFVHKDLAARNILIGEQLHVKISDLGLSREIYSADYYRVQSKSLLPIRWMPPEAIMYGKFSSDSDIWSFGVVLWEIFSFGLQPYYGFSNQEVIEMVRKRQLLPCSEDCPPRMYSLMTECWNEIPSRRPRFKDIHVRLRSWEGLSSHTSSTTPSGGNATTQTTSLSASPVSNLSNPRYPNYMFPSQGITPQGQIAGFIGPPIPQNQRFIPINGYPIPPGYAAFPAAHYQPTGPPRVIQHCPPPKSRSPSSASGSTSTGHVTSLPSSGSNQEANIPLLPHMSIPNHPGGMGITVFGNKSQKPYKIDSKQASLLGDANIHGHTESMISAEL
Assay: cell-based or functional assay

Binder | IC50 of in vitro cell killing, HS 578T cells (hROR1 status positive) | IC50 of in vitro cell killing, MDA-MD-468 cells (hROR1 status positive)
B1 | 0.707 µg/mL | 0.143 µg/mL

Target: T1, human ROR1, full length, on cells
Assay: cell-based or functional assay
Remark: another data set of the same source

Binder | IC50 values on 697 cells (in vitro cell killing)
B2 | 0.0917 µg/mL
B3 | 0.0939 µg/mL

Target: T2, StrepII-tagged human ROR1 extracellular domain (human, UniProt Q01973 30-406)
T2 construct: extracellular domain; also called ROR1-strep; strep-tagged human ROR1
T2 sequence (Q01973 other isoform, or with tags, fused parts or gaps): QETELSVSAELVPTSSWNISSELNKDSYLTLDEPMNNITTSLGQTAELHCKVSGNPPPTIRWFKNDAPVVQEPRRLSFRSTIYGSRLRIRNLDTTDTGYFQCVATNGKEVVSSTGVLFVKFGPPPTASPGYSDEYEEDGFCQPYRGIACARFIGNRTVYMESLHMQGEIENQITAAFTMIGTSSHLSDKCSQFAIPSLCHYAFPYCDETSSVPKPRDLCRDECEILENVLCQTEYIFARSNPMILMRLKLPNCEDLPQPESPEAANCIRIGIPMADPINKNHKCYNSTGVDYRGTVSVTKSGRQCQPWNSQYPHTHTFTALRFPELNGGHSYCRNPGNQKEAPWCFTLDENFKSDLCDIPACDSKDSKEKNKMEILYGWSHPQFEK
Assay: SPR (Biacore T200), mAb captured by anti-human Fc-gamma IgG on CM5, ROR1-strep as analyte

Kd | Binder
3.55 nM | B4
3.34 nM | B5
2.98 nM | B6
3.13 nM | B7
2.14 nM | B8
3.16 nM | B9

Target: T3, twin strep-tagged human ROR2 extracellular domain (human, UniProt Q01974 34-403)
T3 construct: extracellular domain; Expressed in HEK293T; also called ROR2-ECD-TwinStrep
T3 sequence (Q01974 34-403): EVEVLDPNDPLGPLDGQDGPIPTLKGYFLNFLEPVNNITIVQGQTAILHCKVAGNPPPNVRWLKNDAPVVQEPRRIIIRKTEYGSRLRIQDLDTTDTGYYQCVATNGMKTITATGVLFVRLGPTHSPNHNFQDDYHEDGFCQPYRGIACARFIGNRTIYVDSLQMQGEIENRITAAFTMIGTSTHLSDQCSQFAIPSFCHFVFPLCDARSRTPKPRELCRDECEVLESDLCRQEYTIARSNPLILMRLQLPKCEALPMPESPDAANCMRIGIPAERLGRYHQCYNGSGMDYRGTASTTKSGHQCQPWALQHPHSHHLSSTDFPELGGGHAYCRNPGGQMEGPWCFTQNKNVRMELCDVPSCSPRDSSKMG
Assay: ELISA on coated twin-strep tagged human ROR2; anti-human Fcγ F(ab')2-HRP; absorbance 490 nm
Experimental: Each well of a 96-well plate was coated with 100 μL of 2 μg/mL strep-tagged human ROR1 (from Example 5) in 0.1 M bicarbonate coating buffer (pH 9.6), and incubated for 12 h at 4° C. A second 96-well plate was likewise prepared with twin-strep tagged human ROR2 (from Example 5).
HRP-conjugated F(ab′)₂ anti-human FC-gamma (Jackson Immunoresearch, 109-036-008) was then added at a 1:20′000 dilution, 100 μl per well, and incubated for 1 h at 37° C. prior to detection using an Spark 10M plate reader (Tecan).

binding result | Binder
no binding (tested: about 500 ng/ml) | B10
no binding (tested: about 500 ng/ml) | B11
no binding (tested: about 500 ng/ml) | B12
no binding (tested: about 500 ng/ml) | B13
no binding (tested: about 500 ng/ml) | B14
no binding (tested: about 500 ng/ml) | B15

Target: T2, StrepII-tagged human ROR1 extracellular …
Assay: SPR (Biacore T200); mAb captured by goat anti-human Fcγ IgG on CM5; ROR1-strep as analyte (Example 8)
Experimental: Affinity screening was then performed to select the best binders. Affinities were determined using a Biacore T200 instrument (GE Healthcare, Buckinghamshire, UK) and data was evaluated using Biacore Evaluation T200 V2.0 software. To capture mAbs, goat α-human Fc-gamma-specific IgG (Jackson ImmunoResearch, #109-005-098) was covalently immobilized on a CM5 chip (GE Healthcare, #BR-1005-30).

Kd | koff | kon | Binder
3.5 nM | 0.00394 s⁻¹ | 1.11e+06 M⁻¹ s⁻¹ | B4
3.4 nM | 0.00322 s⁻¹ | 960000 M⁻¹ s⁻¹ | B5
3 nM | 0.00332 s⁻¹ | 1.11e+06 M⁻¹ s⁻¹ | B6
3.1 nM | 0.00328 s⁻¹ | 1.05e+06 M⁻¹ s⁻¹ | B7
2.1 nM | 0.00276 s⁻¹ | 1.29e+06 M⁻¹ s⁻¹ | B8
3.2 nM | 0.00375 s⁻¹ | 1.19e+06 M⁻¹ s⁻¹ | B9
